# Square brackets hold non-standard residues; d marks the D form. Ends that are not written are not given here. pT = C[C@@H](OP(=O)(O)O)[C@H](N)C(=O)O; pS = N[C@@H](COP(=O)(O)O)C(=O)O
# Biological target: biotinylated HLA-B*07:02 with β2m (human)
# Assay: AlphaScreen, peptide titrated on biotinylated HLA + b2m
# Conditions: remark: other sources report otherwise
row,Binder,Kd [µM]
1,GPRSA[pS]LLSL [GPRSAsLLSL],0.0341
2,GPRSASLL[pS]L [GPRSASLLsL],0.0471
3,RPRPV[pS]PSSL [RPRPVsPSSL],0.218
4,RPT[pS]RLNRL [RPTsRLNRL],0.117
5,RPS[pS]LPDL [RPSsLPDL],0.369
6,EPR[pS]PSHSM [EPRsPSHSM],0.199
7,GPRSA[pS]LL[pS]L [GPRSAsLLsL],0.05
8,QPR[pT]PSPLVL [QPRtPSPLVL],0.199
9,RVA[pS]PTSGV [RVAsPTSGV],0.227

# More lines, now with the values ahead:
row,Kd [µM],Binder
1,0.091,TPR[pS]PPLGLI [TPRsPPLGLI]
2,0.0755,TPR[pS]PPLGL [TPRsPPLGL]
3,0.551,RVR[pS]PTRSP [RVRsPTRSP]

# Biological target: biotinylated HLA-A*02:01 with β2m (human)
# Assay: as above
# Conditions: remark: other sources report otherwise
row,Binder,Kd [µM]
1,RQA[pS]IELPSM [RQAsIELPSM],0.0204
2,RQA[pS]IELPSMAV [RQAsIELPSMAV],0.0148
3,KLIDRTE[pS]L [KLIDRTEsL],0.26
4,GLLG[pS]PVRA [GLLGsPVRA],0.431
5,GPRSA[pS]LL[pS]L [GPRSAsLLsL],0.5
6,RVA[pS]PTSGV [RVAsPTSGV],0.242
7,RTL[pS]HISEA [RTLsHISEA],0.157

# The remaining lines, values ahead:
row,Kd [µM],Binder
1,0.149,VLL[pS]PVPEL [VLLsPVPEL]
2,0.0539,SLFGG[pS]VKL [SLFGGsVKL]
3,0.701,SMTR[pS]PPRV [SMTRsPPRV]
4,0.0405,VLY[pS]PQMAL [VLYsPQMAL]

# Biological target: biotinylated HLA-C*07:01 with β2m (human)
# Assay: as above
# Conditions: remark: other sources report otherwise
row,Kd [µM],Binder
1,0.38,RTL[pS]HISEA [RTLsHISEA]
